# Reference: patent US9708413B2, “Glycosylated linker, compound containing glycosylated linker moiety and physiologically active substance moiety or salt thereof, and methods for producing said compound or salt thereof” (Glytech, Inc., priority 2012, dated 2017)
# Values joined by “and” are separate entries in the source; they are usually repeats but may differ in a detail not shown here. Equal values may be shown once. Read-outs that look alike come from different tables or passages of the source.
# How the values were obtained:
# [1] = Autocatalytic cleavage of the glycosylated linker moiety in aqueous solution, traced by HPLC (elimination half-life)
# Procedure: To each sampled solution, a 0.5% aqueous TFA solution (28 μL) was added, and this solution was then frozen. The obtained solution was dissolved immediately before HPLC analysis, and a 50 μL aliquot thereof was injected and analyzed by HPLC [column: SHISEIDO CAPCELL PAK C18 UG-120 (5 μm), φ4.6×250 mm, flow rate: 0.7 mL/min, eluent A: 0.1% TFA in water, eluent B: 0.09% TFA/10% water/90% acetonitrile, gradient A:B=77:23→50:50 (20 min) linear concentration gradient elution]. The compound was detected using a diode array detector with a detection wavelength set to 220 nm.
# [2] = physchem
# Procedure: To each microtube, 30 μL of a 0.1% aqueous TFA solution was added. These microtubes were shaken at 25° C. for 15 minutes and then centrifuged at 16100×g at 25° C. for 10 minutes. Subsequently, the absorbance of the supernatant at 280 nm was measured in each of these microtubes.
# Then, three of these tubes were used in amino acid composition analysis to determine sample contents. […] This absorbance at 280 nm was divided by the concentration determined in the amino acid composition analysis to determine the molar absorption coefficient.
# The molar absorption coefficient εM of the HER28-16 peptide (SEQ ID NO: 15) at 280 nm was calculated according to the following expression (C. N. Pace et al., Prot. Sci., 1995, 4, pp. 2411-2423): εM=Trp×5500+Tyr×1490+Cystine×125[A280/mol/cm]
# wherein Trp represents the number of tryptophan residues, Tyr represents the number of tyrosine residues, and Cystine represents the number of disulfide bonds.
# [3] = PBS solution, pH 7.4, Elimination half-life, PBS (pH 7.4), 37° C.
# [4] = acetate buffer solution, pH 4, Elimination half-life, Acetate buffer solution (pH 4.0), 37° C.
# [5] = PBS solution, pH 7.4, Elimination half-life, PBS (pH 7.4), 25° C.
# [6] = acetate buffer solution, pH 4, Elimination half-life, Acetate buffer solution (pH 4.0), 25° C.
Compound,"half-life [1, 3] [min]","half-life [1, 4] [min]","half-life [1, 5] [min]","half-life [1, 6] [min]",further results
"CC(=O)N[C@@H]1[C@@H](O)[C@H](O)[C@@H](CO)O[C@H]1NC(=O)CSC[C@H](N)C(=O)N1CCN(CCNC(=O)c2ccccc2C(=O)N[C@@H](Cc2ccc(O)cc2)C(=O)N[C@@H](Cc2ccccc2)C(=O)N2CCC[C@H]2C(=O)NCC(=O)N[C@@H](CCC(N)=O)C(=O)N[C@@H](Cc2ccccc2)C(=O)N[C@@H](C)C(=O)N[C@@H](Cc2ccccc2)C(=O)N[C@@H](CO)C(=O)O)CC1 [compound 4, glycosylated (Cys (GlcNAc)-type) linker-chemerin 9 conjugate]",84,258,–,–,–
"CC(C)C[C@H](NC(=O)[C@H](CC(C)C)NC(=O)[C@H](C)NC(=O)[C@H](CC(C)C)NC(=O)[C@H](CC(C)C)NC(=O)[C@H](CC(C)C)NC(=O)CNC(=O)[C@H](Cc1c[nH]c2ccccc12)NC(=O)[C@@H](N)CCCNC(=N)N)C(=O)O [HER28-16, reference compound]",–,–,–,–,solubility thermodynamic at 15 min [2]: 210 µg/mL and 200 µM
"CC(=O)N[C@@H]1[C@@H](O)[C@H](O[C@@H]2O[C@H](CO)[C@@H](O[C@@H]3O[C@H](CO[C@H]4O[C@H](CO)[C@@H](O)[C@H](O)[C@@H]4O[C@@H]4O[C@H](CO)[C@@H](O[C@@H]5O[C@H](CO)[C@H](O)[C@H](O)[C@H]5O)[C@H](O)[C@H]4NC(C)=O)[C@@H](O)[C@H](O[C@H]4O[C@H](CO)[C@@H](O)[C@H](O)[C@@H]4O[C@@H]4O[C@H](CO)[C@@H](O[C@@H]5O[C@H](CO)[C@H](O)[C@H](O)[C@H]5O)[C@H](O)[C@H]4NC(C)=O)[C@@H]3O)[C@H](O)[C@H]2NC(C)=O)[C@@H](CO)O[C@H]1NC(=O)CSCC(N)C(=O)N1CCN(CCNC(=O)c2ccccc2C(=O)N[C@@H](Cc2ccc(O)cc2)C(=O)N[C@@H](Cc2ccccc2)C(=O)N2CCC[C@H]2C(=O)NCC(=O)N[C@@H](CCC(N)=O)C(=O)N[C@@H](Cc2ccccc2)C(=O)N[C@@H](C)C(=O)N[C@@H](Cc2ccccc2)C(=O)N[C@@H](CO)C(=O)O)CC1 (stereo partly shown) [compound 5, glycosylated (Cys (asialo)-type) linker-chemerin 9 conjugate]",78,270,–,–,–
"CC(=O)N[C@@H]1[C@@H](O)[C@H](O[C@@H]2O[C@H](CO)[C@@H](O[C@@H]3O[C@H](CO[C@H]4O[C@H](CO)[C@@H](O)[C@H](O)[C@@H]4O[C@@H]4O[C@H](CO)[C@@H](O[C@@H]5O[C@H](CO)[C@H](O)[C@H](O)[C@H]5O)[C@H](O)[C@H]4NC(C)=O)[C@@H](O)[C@H](O[C@H]4O[C@H](CO)[C@@H](O)[C@H](O)[C@@H]4O[C@@H]4O[C@H](CO)[C@@H](O[C@@H]5O[C@H](CO)[C@H](O)[C@H](O)[C@H]5O)[C@H](O)[C@H]4NC(C)=O)[C@@H]3O)[C@H](O)[C@H]2NC(C)=O)[C@@H](CO)O[C@H]1NC(=O)CC(N)C(=O)N1CCN(CCNC(=O)c2ccccc2C(=O)N[C@@H](Cc2ccc(O)cc2)C(=O)N[C@@H](Cc2ccccc2)C(=O)N2CCC[C@H]2C(=O)NCC(=O)N[C@@H](CCC(N)=O)C(=O)N[C@@H](Cc2ccccc2)C(=O)N[C@@H](C)C(=O)N[C@@H](Cc2ccccc2)C(=O)N[C@@H](CO)C(=O)O)CC1 (stereo partly shown) [compound 1, glycosylated (Asn (asialo)-type) linker-chemerin 9 conjugate]",72,264,258,960,"half-life ([1]; PBS solution, pH 7.4, Elimination half-life, PBS (pH 7.4), 4° C.): 2590 min; half-life ([1]; acetate buffer solution, pH 4, Elimination half-life, Acetate buffer solution (pH 4.0), 4° C.): 15000 min; half-life ([1]; water, Elimination half-life (Reference), in water, 4° C.): 13200 min"
"CC(=O)N[C@@H]1[C@@H](O)[C@H](O[C@@H]2O[C@H](CO)[C@@H](O[C@@H]3O[C@H](CO[C@H]4O[C@H](CO)[C@@H](O)[C@H](O)[C@@H]4O[C@@H]4O[C@H](CO)[C@@H](O[C@@H]5O[C@H](CO)[C@H](O)[C@H](O)[C@H]5O)[C@H](O)[C@H]4NC(C)=O)[C@@H](O)[C@H](O[C@H]4O[C@H](CO)[C@@H](O)[C@H](O)[C@@H]4O[C@@H]4O[C@H](CO)[C@@H](O[C@@H]5O[C@H](CO)[C@H](O)[C@H](O)[C@H]5O)[C@H](O)[C@H]4NC(C)=O)[C@@H]3O)[C@H](O)[C@H]2NC(C)=O)[C@@H](CO)O[C@H]1NC(=O)CC(N)C(=O)N1CCN(CCNC(=O)c2ccccc2C(=O)N[C@@H](CCCNC(=N)N)C(=O)N[C@@H](Cc2c[nH]c3ccccc23)C(=O)NCC(=O)N[C@@H](CC(C)C)C(=O)N[C@@H](CC(C)C)C(=O)N[C@@H](CC(C)C)C(=O)N[C@@H](C)C(=O)N[C@@H](CC(C)C)C(=O)N[C@@H](CC(C)C)C(=O)O)CC1 (stereo partly shown) [compound 11, glycosylated (Asn (asialo)-type) linker-HER28-16 conjugate]",156,372,498,1280,"solubility at 15 minutes [2]: > 38 mM; Solubility ([2]; 0.1% aqueous TFA solution, 25° C., listed as Glycosylated linker-HER28-16 conjugate (compound 11)): >116 mg/mL; solubility at 15 minutes ([2]; Solubility (molar concentration), 0.1% aqueous TFA solution, 25° C.): ≥ 38 mM"
"CC(=O)N[C@@H]1[C@@H](O)[C@H](O[C@@H]2O[C@H](CO)[C@@H](O[C@@H]3O[C@H](CO[C@H]4O[C@H](CO)[C@@H](O)[C@H](O)[C@@H]4O[C@@H]4O[C@H](CO)[C@@H](O[C@@H]5O[C@H](CO)[C@H](O)[C@H](O)[C@H]5O)[C@H](O)[C@H]4NC(C)=O)[C@@H](O)[C@H](O[C@H]4O[C@H](CO)[C@@H](O)[C@H](O)[C@@H]4O[C@@H]4O[C@H](CO)[C@@H](O[C@@H]5O[C@H](CO)[C@H](O)[C@H](O)[C@H]5O)[C@H](O)[C@H]4NC(C)=O)[C@@H]3O)[C@H](O)[C@H]2NC(C)=O)[C@@H](CO)O[C@H]1NC(=O)CC(NC(=O)OCC1c2ccccc2-c2ccccc21)C(=O)N1CCN(CCNC(=O)c2ccccc2C(=O)N[C@@H](Cc2ccc(O)cc2)C(=O)N[C@@H](Cc2ccccc2)C(=O)N2CCC[C@H]2C(=O)NCC(=O)N[C@@H](CCC(N)=O)C(=O)N[C@@H](Cc2ccccc2)C(=O)N[C@@H](C)C(=O)N[C@@H](Cc2ccccc2)C(=O)N[C@@H](CO)C(=O)O)CC1 (stereo partly shown) [compound 7, glycosylated (Fmoc-Asn (asialo)-type) linker-chemerin 9 conjugate]",156,732,–,–,–
"CC(=O)N[C@@H]1[C@@H](O)[C@H](O[C@@H]2O[C@H](CO)[C@@H](O[C@@H]3O[C@H](CO[C@H]4O[C@H](CO)[C@@H](O)[C@H](O)[C@@H]4O[C@@H]4O[C@H](CO)[C@@H](O[C@@H]5O[C@H](CO)[C@H](O)[C@H](O)[C@H]5O)[C@H](O)[C@H]4NC(C)=O)[C@@H](O)[C@H](O[C@H]4O[C@H](CO)[C@@H](O)[C@H](O)[C@@H]4O[C@@H]4O[C@H](CO)[C@@H](O[C@@H]5O[C@H](CO)[C@H](O)[C@H](O)[C@H]5O)[C@H](O)[C@H]4NC(C)=O)[C@@H]3O)[C@H](O)[C@H]2NC(C)=O)[C@@H](CO)O[C@H]1NC(=O)CC(N)C(=O)N1CCN(CCNC(=O)c2c(Cl)c(Cl)c(Cl)c(Cl)c2C(=O)N[C@@H](Cc2ccc(O)cc2)C(=O)N[C@@H](Cc2ccccc2)C(=O)N2CCC[C@H]2C(=O)NCC(=O)N[C@@H](CCC(N)=O)C(=O)N[C@@H](Cc2ccccc2)C(=O)N[C@@H](C)C(=O)N[C@@H](Cc2ccccc2)C(=O)N[C@@H](CO)C(=O)O)CC1 (stereo partly shown) [compound 10, glycosylated (Asn (asialo)-tetrachlorophthaloyl-type) linker-chemerin 9 conjugate]",15.3,78,66,270,–
